In the DeepSol protein solubility set:

Assay: soluble on expression in E. coli; label from the status in PepcDB or PDB records
For “MFSALRHRTAALALGVCFILPVHASSPKPGDFANTQARHIATFFPGRMTGTPAEMLSADYIRQQFQQMGYRSDIRTFNSRYIYTARDNRKNWHNVTGSTVIAAHEGKAPQQIIIMAHLDTYAPQSDADADANLGGLTLQGMDDNAAGLGVMLELAERLKNTPTEYGIRFVATSGEEEGKLGAENLLKRMSDTEKKNTLLVINLDNLIVGDKLYFNSGVKTPEAVRKLTRDRALAIARSHGIAATTNPGLNKNYPKGTGCCNDAEIFDKAGIAVLSVEATNWNLGNKDGYQQRAKTAAFPAGNSWHDVRLDNQQHIDKALPGRIERRCRDVMRIMLPLVKELAKAS”, the “soluble on expression in E. coli” value was “not soluble”.
With “MAHHHHHHMSIFGVSSYFLWTQKGQTVLPLVRGSGFVMSFQQLNTFYSYHVMSAAHVTCPVKHRKLYGDTIGLKAIGERHISTRLLIPDEATHRVQSSFELEFRQQYMPNTDVASLRLCKEEQFKKAMLPPQDSGTGTASPLQVILPDLDRIEEGDELILCGVHTEEERANPNDDGLVLNPMRLIATCKAALLSLDYGTVLLASIDGPAEEARESGSGSAASASRPVTVPPLPLSMCGGPVLRRSSGRCVGVIAARVMANAPPRDPQSTSLYQDPYLDISEHIALHAHWPLDVAFVPIGEFYDPLRRCEM” the “soluble on expression in E. coli” value was “not soluble”.
With “MGSDKIHHHHHHMKLVEITREEIRGDLVGLVPVGSIEQHGPHLPMGTDGIISEYIASKAEEKLKDITLLFPTIYYGVSLEHKGFPFVSLSFQTAISFFTDLLESVFNDLGLRRIIIVNGHGGNSYFLPLVQREFNMKHSDAKVIVFNTFGEEEKILFNVNDLHAGTIETSKIWAIGKSLVRVNKIDEIKNYEVRDGVFIYYSSREANQFGVLNDGKPIRVNEEYGKKILRDLVDKLIWTILNFKV” the “soluble on expression in E. coli” value was “not soluble”.
In the case of “MEVLKVASNSNPNKVAGALAGVIREKGKAELQAIGAGAVNQAVKAIAIARGYLAPSGINLVCVPAFAEVQINGETRTAIKFIVFPKD”, the “soluble on expression in E. coli” value is reported as “not soluble”.
In the case of “MGSDKIHHHHHHDDDIIGALLEGKMPQATPVPPPTTVAATVASIDPPALKPAVDPRWVHLHNVHTGEKLEAVYWENGDYVPDAVSALDKVLRDYRNDEVHPIDRGLYDLLDQIARKTQSKGPFQVISGYRSPATNRLLSKRSGEVAKKSLHMDGKAMDIFLEDVELKHVRAAALDLSVGGVGYYPTSNFVHVDVGPVRKWTGT”, the “soluble on expression in E. coli” value is reported as “not soluble”.
For “MSKLASPQSVRALLERHGLFADKRFGQNFLVSEAHLRRIVEAARPFTGPVFEVGPGLGALTRALLEAGAEVTAIEKDLRLRPVLEETLSGLPVRLVFQDALLYPWEEVPQGSLLVANLPYHIATPLVTRLLKTGRFARLVFLVQKEVAERMTARPKTPAYGVLTLRVAHHAVAERLFDLPPGAFFPPPKVWSSLVRLTPTGALDDPGLFRLVEAAFGKRRKTLLNALAAAGYPKARVEEALRALGLPPRVRAEELDLEAFRRLREGLEGAV”, the “soluble on expression in E. coli” value was “soluble”.
For “MVKDKQKAIFSENLNSYIAKSEKTQLEIAKSIGVSPQTFNTWCKGIAIPRMGKVQALADYFNINKSDLIEDKKLNIDTVPIESGYTIPVLGRVAAGYGKEAVEEVIGQIEISPSMAAKGDYFGLLIKGDSMIPTLYDGDTVIVERTDDAESGDLVIALVNGSDATCKRLQKYAEGIALIPQNPVYEPMRFTESEIDTTPVKILGKVVEMRRKFLEHHHHHH”, the “soluble on expression in E. coli” value was “soluble”.
For “MKKSLLGIISILSLTLLFSGCVDNSGAEEQAVLHAYVGAGMQMPMDEIAIEFEEKYGIKVEYDYSGSGALLSKIVASNQGDIFMPGDCSYVYQLQEKEMSTECSNVTKHIPVIAVQKGNPKNITGLSDLGQDDLELALGDSSISIGKLFTKILSKAETKGVNVTEAVNSNTVVTGATVKQVLLYVTEKNVDAAVVWSADAYENSDAVDIVPIESEYNIIKTVPISILSTTEDYDNAKLFYDFVNNEGKEIFEKHGFVALE”, the “soluble on expression in E. coli” value was “not soluble”.
In the case of “GNGFDVENYKDKEIVIVAGGTGVSPVRGVVEYFAKNSKEAKSVTLIAGFKTPKDILFSEDFKEWKNNINIILTVDSAEGDSNFKEGLVTKYIPELKLQNVKEASAIVVGPPAMMRFSTQGLLDVGFKEENMWISQERKMCCGIGKCGHCKIDDVY”, the “soluble on expression in E. coli” value is reported as “not soluble”.
In the case of “MSLSRQRCIIVGASHGGVNLAFALRKEGYEGRITLIDADCNLPYHRPPLSKTHLIANEPAGQLLKPEQGYQKADISLMLGVSVVDVKSKNKQVLLDDGTRHPYTQLVLATGASPITPPIPGIDSAKHLYTIRTADDAHAIATAFKQSEQKRVVVIGGGYVGLETAASLRKSGAVVTVLEREPRLLARVTAPMMSDYFYALHRQHGVEVHNDKNVSEIKTNANENSVVCSDGSEYPADIIIVGVGVRVNTALADKANLEINNGIVVNEANQTSAQDIFAIGDCCAQFNPHYQRWLRLESVQNALDQGKVAAAAICHKAFKTQPVPWFWSDQYNIKLQMVGLSQGYDDVVMRKELDKPDSFSVWYFKGNELLAVDAVNNAKAYVLGTKFINAMEQVDKNKLTDNSAPLSASIIKEFAEGHHHHHH”, the “soluble on expression in E. coli” value is reported as “soluble”.
For “MSLTDPNRLTLFYSPQTRATGMRVLLEELGAPYDLHVLNMKAGEQRQPAYLAINPLGKVPAIRRGDALVTEQVAITIYLADLFPGAGLAPSLDDPLRGPYLRWIAYYGSTFEPAVVDRSMQREPGPAEMSPYADYDTMLGALEAQLATGPYLLGDRFTAADVLWGIALNWTLNFGLVPKKDAFVRYAELVTARPAFRRVDLADAEMAAEGHHHHHH”, the “soluble on expression in E. coli” value was “soluble”.
In the case of “MGSDKIHHHHHHMDKLRAIQLFVRLADLGSFTRVAEQVNSSKSMISKEISRLEADLGTRLLHRSTRSVQLTHVGEGYLQRAREILSKLDDADNFVQDLQQNLRGKLKINAPMALGITDLSHLFADFMKANPEIELDIHLGDESVDLVEQGFDLGFRASSQPIDSNYVGRPLTRFTYKVCVSPDYLKMHSTITHPRDLKEHNCFIYSYFQGKNVWPIEGGIEVKGSLRVNNTMFMMESIKQGLGIGFIPDFVCQQAINSGQVVEVLADSKKSMLTLYALYPVRNFVPPKLVQCIEYLEQWFADKDKP”, the “soluble on expression in E. coli” value is reported as “not soluble”.
With “MNLEHHSNHYQPTCSIEALQARAKLYQTIRTFFAERGVLEVETPIISQAGVTDVHLASVKALRHIEGKERTQYLQTSPEFAMKRLLASGSGPIYQLCKVFRDDEHGRKHNSEFTMLEWYRPEFDLKDLMHETADLLETCLKQRFDEIRPMILSYKHAFQDRLEINPLQATLKQLKDTADRVGLNLDLGNDRLAYIDLLFSHIVEPSLGFDTPVFLTDFPPEMASLAKVRIDEDGEEVAARFEVYIEGLELANAYDELLDANILRARFEADNLERKLQGLAEMPLDENLLAALPHMPACAGIALGVDRLLMIATRQLKIEQVIAFPAAIA” the “soluble on expression in E. coli” value was “not soluble”.
In the case of “MGHHHHHHSHMSQHGQSCLSLAGTIDCSVPDILLKSGVIGLAQWLTPVIPALWETEAGGSLEVRSSRPAWPTWRNPISTKNTKISQTWWRMPVVLATWEAEAGESVNLGGRGCSELRRCRCTPAWATRAKLHLRKNKNKNNGVTKT”, the “soluble on expression in E. coli” value is reported as “not soluble”.
In the case of “IDIKDVELTADNGKPVYATFFCPKEEIKAAVVIAPALGVDKIFYQDFALWLASYGYLVTTFDYSSMGSADKVHYKESDTTITDWAVFDCKKILEQVSIEIKDKD”, the “soluble on expression in E. coli” value is reported as “not soluble”.
In the case of “MMKPIAVSQLSDNFFETISKEWMLVTAGNKNAFNTMTANWGGIGFLWNKPVVYVFIRPERYTFGFMEKSDYFTLSFLGEENKSIHKICGSKSGREVDKIKETGLKPMITDKGNVLFEQGRLSLECRKLYTDVLRKENFLDPSVYEQWYTTHGGLHHVYVAEITSAWIKD”, the “soluble on expression in E. coli” value is reported as “not soluble”.
With “MQVPQDGEDLAGQPWYHGLLSRQKAEALLQQNGDFLVRASGSRGGNPVISCRWRGSALHFEVFRVALRPRPGRPTALFQLEDEQFPSIPALVHSYMTGRRPLSQATGAVVSRPVTWQGPLRRSFSEDTLMDGPARIEPLRARKWSNSQPADLAHMGRSREDPAGMEASTMPISALPRTSSDPVLLKAPAPLGTVADSLRASDGQLQAKAPTKPPRTPSFELPDASERPPTYCELVPRVPSVQGTSPSQSCPEPEAPWWEAEEDEEEENRCFTRPQAEISFCPHDAPSCLLGPQNRPLEPQVLHTLRGLFLEHHPGSTALHLLLVDCQATGLLGVTRDQRGNMGVSSGLELLTLPHGHHLRLELLERHQTLALAGALAVLGCSGPLEERAAALRGLVELALALRPGAAGDLPGLAAVMGALLMPQVSRLEHTWRQLRRSHTEAALAFEQELKPLMRALDEGAGPCDPGEVALPHVAPMVRLLEGEEVAGPLDESCERLLRTLHGARHMVRDAPKFRKVAAQRLRGFRPNPELREALTTGFVRRLLWGSRGAGAPRAERFEKFQRVLGVLSQRLEPDR” the “soluble on expression in E. coli” value was “soluble”.
With “MDADVIVVGAGLAGLVAAHELTSRGRRVALVDQENAANLGGQAFWSFGGLFLVDSPEQRRLGVKDSLDLAWNDWQGSAGFDRTEDEDSWAVRWARAYVEWAAGEKRSWLAGHGITFLPTVGWAERGDLRAGGHGNSVPRFHIAWGTGTGVVEPFVRYAKQAARDGLLTFHHRHRVDHLVVEDGTARGVRGTVLAPDDSPRGVASSRDTAGEFELAAQAVIVTSGGIGADHDIVRRHWPERLGTPPAEMVTGVPAYVDGRMLGISAEAGARLVNRDRMWHYTEGVRNWDPIWPGHGIRILPGPSSMWFDALGRRLPEPYLPGYDTLGTLRHLRTAEGLAEHGHSWFVLTRKIIEKEFALSGSEQNPDITAKDRAGFLRERVLGKGAPGPVGAFLRHGADFVTAPDLEQLVEKMNRLTDKPLLDAAALRRQIEARDLQLANPYAKDAQVQGIRNARRYIGDRLGRVATPHRLLDPAAGPLIGVKLHILTRKTLGGIQTDLDSRALGADGTPVEGLYAAGEVAGFGGGGVHGYNALEGTFLGGCLFSGRAAGRAAARQTALEHHHHHH” the “soluble on expression in E. coli” value was “not soluble”.
In the case of “MTCLSRDWATAQRLVEWALASTRCECFNVDSNFMAGLCLVENPTKQHYSFEVRKQVVDRFNAGQSKMDLAREFGLSSDQLVSSWVRAWRAGGDEALRPKPKGRPKGSASSKPLTEEDRLRREVEKLRAENAYLKKLRDLRNQRRSLEHHHHHH”, the “soluble on expression in E. coli” value is reported as “soluble”.
In the case of “MGSDKIHHHHHHLLKSSSTVHKGADYWTKRISDQEMPALCSTVRELEKLAKDDVSSLAILGRSVMHDNALTSRILRVANSATYNKGINHVSTVSRAAVMLGFDTLRNICITARLLSSLLENKNLSPNVYQRLLKLMAQSFQAAMLARMMMTGHDEKLREEVFIASLLYRIGESAFWSTGGSFSDALDQKLRDSDSEQDPQAIVRDILGTSFSQLTQNIARSWGLGEVLLKSLSHPDERTPEIRCIALADKLAQLLIEPAEDPNEFAERLKQTADMLNIEVSEFRQKVVDCTKATQKLAIDYGAKVLLDFLPKSADVKASVDQEAKPLVVRASDAAIQLKKLRELTGYALTKTDFNQVMLTALEGILSGVGVDRCGVLLLSPNRQLLQPRIMLGDEAEAMKREFIISLDETMSIFSQCVERKTPFWVADPNAKEWQKSINPALKTKLSKTGFFLAPVSIDTRVIGVFFADRSHSGRSFEPQDYDNFTHFTQLANICFGVSVK”, the “soluble on expression in E. coli” value is reported as “not soluble”.
In the case of “MCGVSLSVIIETLYFACRFRMVEKFLNQSVIWCRSGALRHCRTCGRGRAADTAFTLGDGSKRMGGCVQKEKNEAQKGEKGYRFRLFTGK”, the “soluble on expression in E. coli” value is reported as “not soluble”.
For “MSLKRYRTLLFDVDDTILDFQAAEALALRLLFEDQNIPLTNDMKAQYKTINQGLWRAFEEGKMTRDEVVNTRFSALLKEYGYEADGALLEQKYRRFLEEGHQLIDGAFDLISNLQQQFDLYIVTNGVSHTQYKRLRDSGLFPFFKDIFVSEDTGFQKPMKEYFNYVFERIPQFSAEHTLIIGDSLTADIKGGQLAGLDTCWMNPDMKPNVPEIIPTYEIRKLEELYHILNIENTVSEGHHHHHH”, the “soluble on expression in E. coli” value was “soluble”.
